Experimental data as given in patent US20070092518A1 (published 2007).
Substitutions are numbered along the chain they refer to.

B1: SEQ ID NO 45 (Fab, V domains shown)
VH: EVQLVESGGGLVQPGGSLRLSCRASGFIFSNHWMNWVRQAPGKGLEWIGEIRSKSIYSATHYAESVKGRFIISRDGNGNDLTLEMNSLKTEDTAEYYCARNYYGSTPDYWGQGTLVTVS
VL: EIVLTQSPDFQSVTPKEKVTITCRASQFVGSSIHWYQQKPDQSPKLLIKYASESMSGVPSRFSGSGSGTDFTFTISSLEAEDAATYYCQQSHSWPFTFGPGTKVDIK
notes: Fab, E. coli lysate
B2: SEQ ID NO 73 (Fab, V domains shown)
VH: B1 VH with F27S, W33Y, I56S, S58G, H61S, G76D, G78K, R100Q
VL: B1 VL
notes: Fab, E. coli lysate
B3: SEQ ID NO 51 (Fab, V domains shown)
VH: B1 VH with V5T, W33Y, I56S, H61S, G78K, P107Y
VL: B1 VL
notes: Fab, E. coli lysate
B4: SEQ ID NO 61 (Fab, V domains shown)
VH: B1 VH with W33Y, S58G, T82Y, P107Y
VL: B1 VL
notes: Fab, E. coli lysate
B5: SEQ ID NO 87 (Fab, V domains shown)
VH: B1 VH with R23A, I28T, I56S, Y57N, G78K, N79T, D80S, T82Y, P107Y
VL: B1 VL
notes: Fab, E. coli lysate
B6: SEQ ID NO 57 (Fab, V domains shown)
VH: B1 VH with V5T, R23A, I56S, G76D, N79T, D80S, T82Y, R100Q, P107Y
VL: B1 VL
notes: Fab, E. coli lysate
B7: SEQ ID NO 49 (Fab, V domains shown)
VH: B1 VH with V5T, R23A, G26Q, I56S, S58G, D80S, T82Y, R100Q, P107Y
VL: B1 VL
notes: Fab, E. coli lysate
B8: SEQ ID NO 76 (Fab, V domains shown)
VH: B1 VH with V5T, W33Y, Y57N, S58G, G76D, N79T, D80S, T82Y, P107Y
VL: B1 VL
notes: Fab, E. coli lysate
B9: SEQ ID NO 69 (Fab, V domains shown)
VH: B1 VH with G26Q, I28T, I56S, Y57N, D80S, T82Y, P107Y
VL: B1 VL
notes: Fab, E. coli lysate
B10: SEQ ID NO 54 (Fab, V domains shown)
VH: B1 VH with V5T, R23A, F27S, W33Y, S58G, H61S, D80S, T82Y, R100Q
VL: B1 VL
notes: Fab, E. coli lysate
B11: SEQ ID NO 92 (Fab, V domains shown)
VH: B1 VH with R23A, F27S, I56S, Y57N, G78K, P107Y
VL: B1 VL
notes: Fab, E. coli lysate
B12: SEQ ID NO 88 (Fab, V domains shown)
VH: B1 VH with R23A, I28T, I56S, Y57N, H61S, G78K, P107Y
VL: B1 VL
notes: Fab, E. coli lysate
B13: SEQ ID NO 79 (Fab, V domains shown)
VH: B1 VH with R23A, G26Q, F27S, W33Y, S58G, G78K
VL: B1 VL
notes: Fab, E. coli lysate
B14: SEQ ID NO 85 (Fab, V domains shown)
VH: B1 VH with V5T, I56S, Y57N, S58G, H61S, N79T, D80S, R100Q, P107Y
VL: B1 VL
notes: Fab, E. coli lysate
B15: SEQ ID NO 89 (Fab, V domains shown)
VH: B1 VH with G26Q, I28T, W33Y, Y57N, S58G, H61S, G76D, N79T, T82Y, P107Y
VL: B1 VL
notes: Fab, E. coli lysate
B16: SEQ ID NO 99 (Fab, V domains shown)
VH: EVQLVESGGGLVQPGGSLRLSCAASGSIFSNHYMNWVRQAPGKGLEWIGEIRSKSSNGATHYAESVKGRFIISRDDNKNSLYLEMNSLKTEDTAEYYCAQNYYGSTYDYWGQGTLVTVS
VL: B1 VL
notes: Fab, E. coli lysate
B17: SEQ ID NO 95 (Fab, V domains shown)
VH: B16 VH with V5T, A23R, I28T, G58S, H61S, N79T, Q100R
VL: B1 VL
notes: Fab, E. coli lysate
B18: SEQ ID NO 84 (Fab, V domains shown)
VH: B16 VH with G26Q, I28T, Y33W, N57Y, G58S, D76G, S80D, Q100R
VL: B1 VL
notes: Fab, E. coli lysate
B19: SEQ ID NO 68 (Fab, V domains shown)
VH: B1 VH with V5T, G26Q, Y57N, G76D, G78K, P107Y
VL: B1 VL
notes: Fab, E. coli lysate
B20: SEQ ID NO 77 (Fab, V domains shown)
VH: B16 VH with I28T, S56I, N57Y, G58S, H61S, K78G
VL: B1 VL
notes: Fab, E. coli lysate
B21: SEQ ID NO 65 (Fab, V domains shown)
VH: B16 VH with A23R, S27F, Y33W, S56I, N57Y
VL: B1 VL
notes: Fab, E. coli lysate
B22: SEQ ID NO 58 (Fab, V domains shown)
VH: B16 VH with V5T, G26Q, S27F, Y33W, G58S, H61S, K78G, S80D
VL: B1 VL
notes: Fab, E. coli lysate
B23: SEQ ID NO 67 (Fab, V domains shown)
VH: B1 VH with V5T, I28T, W33Y, G78K, N79T
VL: B1 VL
notes: Fab, E. coli lysate
B24: SEQ ID NO 83 (Fab, V domains shown)
VH: B16 VH with V5T, A23R, S27F, S56I, H61S, K78G, Q100R, Y107P
VL: B1 VL
notes: Fab, E. coli lysate
B25: SEQ ID NO 94 (Fab, V domains shown)
VH: B16 VH with A23R, Y33W, S56I, K78G, N79T, Q100R
VL: B1 VL
notes: Fab, E. coli lysate
B26: SEQ ID NO 72 (Fab, V domains shown)
VH: B16 VH with V5T, A23R, S56I, N57Y, G58S, D76G, K78G, N79T
VL: B1 VL
notes: Fab, E. coli lysate
B27: SEQ ID NO 74 (Fab, V domains shown)
VH: B16 VH with V5T, I28T, Y33W, N57Y, G58S, H61S, Y82T, Q100R, Y107P
VL: B1 VL
notes: Fab, E. coli lysate
B28: SEQ ID NO 93 (Fab, V domains shown)
VH: B16 VH with V5T, A23R, S27F, I28T, N57Y, K78G, N79T, S80D, Y107P
VL: B1 VL
notes: Fab, E. coli lysate
B29: SEQ ID NO 100 (Fab, V domains shown)
VH: B16 VH with V5T, A23R, G26Q, S27F, S56I, N79T, S80D, Q100R
VL: B1 VL
notes: Fab, E. coli lysate
B30: SEQ ID NO 81 (Fab, V domains shown)
VH: B1 VH with F27S, I28T, W33Y, Y57N, H61S, N79T, R100Q, P107Y
VL: B1 VL
notes: Fab, E. coli lysate
B31: SEQ ID NO 64 (Fab, V domains shown)
VH: B16 VH with V5T, G26Q, S27F, I28T, Y33W, S56I, N57Y, N79T, Q100R, Y107P
VL: B1 VL
notes: Fab, E. coli lysate
B32: SEQ ID NO 97 (Fab, V domains shown)
VH: B16 VH with V5T, A23R, I28T, Y33W, H61S, K78G, N79T, S80D
VL: B1 VL
notes: Fab, E. coli lysate
B33: SEQ ID NO 75 (Fab, V domains shown)
VH: B1 VH with I28T, G76D, G78K, D80S
VL: B1 VL
notes: Fab, E. coli lysate
B34: SEQ ID NO 66 (Fab, V domains shown)
VH: B1 VH with V5T, I28T, W33Y, G76D, G78K, N79T, P107Y
VL: B1 VL
notes: Fab, E. coli lysate
B35: SEQ ID NO 52 (Fab, V domains shown)
VH: B1 VH with F27S, I56S, D80S, P107Y
VL: B1 VL
notes: Fab, E. coli lysate
B36: SEQ ID NO 98 (Fab, V domains shown)
VH: B1 VH with V5T, I28T, I56S, Y57N, S58G, G78K, N79T, T82Y
VL: B1 VL
notes: Fab, E. coli lysate
B37: SEQ ID NO 46 (Fab, V domains shown)
VH: B16 VH with A23R, I28T, N57Y, H61S, D76G, K78G, S80D, Y107P
VL: B1 VL
notes: Fab, E. coli lysate
B38: SEQ ID NO 91 (Fab, V domains shown)
VH: B16 VH with V5T, G26Q, S56I, G58S, D76G, S80D, Q100R, Y107P
VL: B1 VL
notes: Fab, E. coli lysate

Target: T1, human tumor necrosis factor-α (rHuTNF-alpha, Biosource) (human, UniProt P01375 77-233)
T1 construct: Bought recombinant protein coated on ELISA plates; The TNFα of the Biacore assay is not described further; also called TNFα; human TNFα
T1 sequence (P01375 77-233 limits assumed): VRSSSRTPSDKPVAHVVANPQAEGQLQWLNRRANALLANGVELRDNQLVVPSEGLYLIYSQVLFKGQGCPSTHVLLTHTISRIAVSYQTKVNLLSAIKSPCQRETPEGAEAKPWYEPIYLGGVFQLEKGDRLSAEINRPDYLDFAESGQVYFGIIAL
Assay: solid-phase ELISA, Fab lysate on coated rHuTNF-alpha
Protocol: The Fab libraries were cloned into pTrcHis2A (Cat. No. V365-20, Invitrogen, Carlsbad, Calif.). Proteins were expressed in E. coli and solid-phase ELISA was used to assess Fab binding to human TNFα. Briefly, 96-well plates were coated overnight at 4° C. with 1 μg/ml of rHuTNF-alpha (Biosource, Camarillo, Calif.) in Carbonate-bicarbonate buffer, pH9.4. After washing in PBS with 0.05% (w/v) Tween-20, the wells were blocked with 1% (w/v) BSA in PBS for 1 hour at room temperature. After washing, plates were incubated with transformed E. coli cell lysate diluted in the assay buffer (1% BSA and 0.05% Tween-20 in 10 mM PBS) for 2 hours at room temperature. Various concentrations of infliximab (0.5, 1 and 2 ng/ml) were used as positive anti-Human Kappa Light Chain Biotin/anti-penta-His Biotin control. Plates were washed and incubated with ImmunoPure Goat Anti-Human Kappa Chain, Biotin Conjugated (Cat. No. 31780, Pierce Biotechnology, Rockford, Ill.) and Penta-His Biotin Conjugate (Cat. No. 34440, QIAGEN, Valencia, Calif.) diluted 1:2000 in the assay buffer for 1 hour at room temperature. Following another washing step, plates were probed for 1 hour at room temperature with 100 μL/well of Streptavidin POD (Cat. No. 1089153, Roche Applied Science, Indianapolis, Ind.) diluted 1:4000 in the assay buffer. Plates were further washed and then incubated with 3,3′,5,5′-tetramentylbenzidine (TMB, Cat. No. 34028, Pierce Biotechnology) for 30 minutes. Substrate development was stopped by addition of 100 μL/well TMB Stop Solution (Cat. No. 50-85-05, KPL, Gaithersburg, Md.) and the absorbance was measured at 450 nm via an automated plate spectrophotometer.

| Binder | binding result |
| --- | --- |
| B1 | binds |
| B2 | binds |
| B3 | binds |
| B4 | binds |
| B5 | binds |
| B6 | binds |
| B7 | binds |
| B8 | binds |
| B9 | binds |
| B10 | binds |
| B11 | binds |
| B12 | binds |
| B13 | binds |
| B14 | binds |
| B15 | binds |
| B16 | binds |
| B17 | binds |
| B18 | binds |
| B19 | binds |

| Binder | binding result |
| --- | --- |
| B20 | binds |
| B21 | binds |
| B22 | binds |
| B23 | binds |
| B24 | binds |
| B25 | binds |
| B26 | binds |
| B27 | binds |
| B28 | binds |
| B29 | binds |
| B30 | binds |
| B31 | binds |
| B32 | binds |
| B33 | binds |
| B34 | binds |
| B35 | binds |
| B36 | binds |
| B37 | binds |
| B38 | binds |
